Reference: a protein production outcome set (Wang et al. 2014)

Assay: label from the status in PepcDB records

| Sequence | protein production |
| --- | --- |
| MKFQLKRLAKKRPDRVQIKIQDGQFEIIGMGVWHSYWRDPYHLLLTIPWTGFLLLICLSYLAINLIFALAYWLGGDCIANAKPGNFLDLFFFSVQTLASIGYGAMYPKTLYANTVVTIEAMIGLVGIAVMTGLAFARFSRPSARVIFSRVAVITPYNDVPTLMFRTANQRRNLILEAQMRVYLMRDEITAEGGFIRRFHDLKLLRNQTPSFTLSWLALHPIDEFSPLYGMSAESLIQTNTNIIISVSGIDETVAQVVHARYTYTASNILWNSRFVDIFHHTSDGHRYIDYKYFHDVLPLDKIG | failed |
| MKFRGNFVCQPRAGPAESRPTRPFTPRPSATGSLFMSNQHFVSPDLIRQGFSRAMSDMYREEVPLYGALMELVAEVNAQVLERQPALARHLQSSGELQRLDLERHGAIRVGSAAELATLARLFAVMGMQPVGYYDLTPAGVPVHSTAFRAVHEAALQVSPFRVFTSLLRLELIDNPELRSFAEQVLARRQIFTPQVLELIQQAEAAGGLDAEDAERFIRQALETFRWHHHATVTAAQYASLSAQHRLIADVVAFKGPHINHLTPRTLDIDEVQRLMPARGITPKAVIEGPPRRECPILLRQTSFKALEESVAFTDQAQSQGSHSARFGEIEQRGAALTPKGRELYDRLLNAARDALGDFPNEANAQRYNQLMQEHFREFPDSHPAMREQGLAYFRYFVSETGLAARNQPQRPTTLAALLAAGHLSAEPLVYEDFLPVSAAGIFQSNLGDDSQSHYAGQSNRQAFEAALGRPTLDELQLYAQTQQRSLEHCAATLGLPAL | failed |
| MKFSIIVPSYNSEKYIAELLNSLQNQSYDKKDFEVILVDDCSSDNTLNVVEAYKNKLNLIIKQLDTNSGGPGKPRNTALQLAQGEYVFFVDSDDYINKDTLKDVSKFVDQNHADVVLVKMEGVNGRGVPKSMFKETSDAVTLANSRIIYTLSPTKFYRTSLLRDHAIEFPEDLRSAEDQLFTMKAYVNAKRIAVLADKPYYYATKREGEHMSSAYVSPEDFYKVMSLITEEILNSPLENKNEVLGYFIDRHFSFSRTNNFSLKIADDKKEAWMDALGDFIQKVPTVVDELVNDSFKPLLHYARLKDMKHYQMVEESYKNGKFHSYSAQEGTLKIQFDEGEPYFVFKKLVKPDIRMSHFEFNDQGFELELEFISSIINPNHVASMIQLKLLSRNKKEFIYIPLTMNDQTRFKFKADLNDLMPYLIKEKVWDAHLEMRVDNMTIEKRIGNKRVKYPYSKETSTITQYNNQYYRFTPYFTKDFDNLSFYITSNKLNEMLAVEIKDKQTIQLRSLEFNYILSEGMTAVILPHMFTYGYLTSVTTKDTLTYHLSVGEKVKDKDLKKNFKIETPHLVLKYLEHHHHHH | not failed |
| MKFSKFGQKFTQPTGISQLMDDLGDALKSDQPVNMLGGGNPAKIDAVNELFLETYKALGNDNDTGKANSSAIISMANYSNPQGDSAFIDALVGFFNRHYDWNLTSENIALTNGSQNAFFYLFNLFGGAFVNEHSQDKESKSVDKSILLPLTPEYIGYSDVHVEGQHFAAVLPHIDEVTHDGEEGFFKYRVDFEALENLPALKEGRIGAICCSRPTNPTGNVLTDEEMAHLAEIAKRYDIPLIIDNAYGMPFPNIIYSDAHLNWDNNTILCFSLSKIGLPGMRTGIIVADAKVIEAVSAMNAVVNLAPTRFGAAIATPLVANDRIKQLSDNEIKPFYQKQATLAVKLLKQALGDYPLMIHKPEGAIFLWLWFKDLPISTLDLYERLKAKGTLIVPSEYFFPGVDVSDYQHAHECIRMSIAADEQTLIDGIKVIGEVVRELYDNK | not failed |
| MKFVQERRLTVKTTFSKEYKIFIFGLLISRIGDSLYTFALPWIAYQLTGSAVIMGSLFAVNVLPIVLFGPLVGVLVDRYDRKKLLWMADIINIILVSLVPILHALHLLEVWHLYVITFILAVMSMLFDVTTVTVIPHIAGASLTKANSLYQMVNQLASLFGPIIAGLFISFIGGFQVLWINVLSFIATLIAVIILPSMKNLNKKNTDKKTLQNVLNDLFDGFKWLINDRLNIALSLQAMVGNFGASAVLGVLMYYLLSTLNLTSAQSGYNYTLIGIGGLLGSLIAVPLEKKFRRGILIPLLLFFGALGLTFALWSTYWLAPGIAFGIAMTCNITWNTIVTSIRQETVPSNLQGRVLGFSRVLTRLSMPLGALVGGIISAYNPVFIFALAAFTKIIEVFIALCSPIRKL | failed |
| MKFYTILSILFISFMLSACAVLQKSSPLQENKDFYILDTHTQKKISFEDMILELLKADVILLGEKHDEVKHKISQVMIFNALEGNLSSQNINFDVALEMLASTEQNHLDKAFKNKKTIKANELTNALNWDKVWKWKDYEQFVNVVFYSKSKILGANLSRSEITSIYNGAQPLKGYVSTTNEVKKQLFDIISLSHKLNPEENKELLDKLVEIQQFKDRRMADVLVHHVNKVLLLAGSYHTSKKIGIPLHIQDFKSSKKIVVVNLSYGEIDLKDSDYVLIYKGEELEHHHHHH | failed |
| MKGENMMVKLIALYEQPEDKQAFDEHYFNTHAPLTRKIPGLRDMKVTRIVGSPMGESKFYLMCEMYYDDHESLQQAMRTDEGKASGKDAMKFAGKLLTLMIGEEMDE | not failed |
| MKGFIDDANYSVGLLDEGTNLGNVIDNYVYEHTLTGKNAFFVGDLGKIVKKHSQWQTVVAQIKPFYTVKCNSTPAVLEILAALGTGFACSSKNEMALVQELGVSPENIIFTSPCKQVSQIKYAAKVGVNIMTCDNEIELKKIARNHPNAKVLLHIATEDNIGGEDGNMKFGTTLKNCRHLLECAKELDVQIIGVKFHVSSACKEYQVYVHALSDARCVFDMAGEFGFTMNMLDIGGGFTGTEIQLEEVNHVISPLLDIYFPEGSGIQIISEPGSYYVSSAFTLAVNIIAKKVVENDKFSSGVEKNGSDEPAFVYYMNDGVYGSFASKLSEDLNTIPEVHKKYKEDEPLFTSSLWGPSCDELDQIVESCLLPELNVGDWLIFDNMGADSFHEPSAFNDFQRPAIYFMMSFSDWYEMQDAGITSDAMMKNFFFAPSCIQLSQEDSFSTEA | not failed |
| MKGFNIYTDESTLVSIGDDAGVYEHNGIIWVYTVDIITPVVNDPYLWGAISTANALSDVYAMGGIPVNALAISCFNNCELDIEIFREVIRGALDKLREAKTVLLGGHTIDDKEPKFGLSVAGICPEGKYITQSGAQVGQLLILTKPIGTGILIKGLKEGILKEEDINEAIENMLALNDKARNLMLSLDATACTDVTGFGLLGHAWNICKNSNIGARIFFEKVPYYQLSENLVKKKIYPKGAIENLNFVKNYLKSNLDNWKLILLSDPVTSGGLLFTINKEKLEKIDETAKELEVNYWIIGETIAENVLEVL | not failed |
| MKGHIRERSPGHWAIVLDVGEVDPKTGKKKRKWHSFTGTKREAQKECSRLITVLDQGLYVEPTKQTVAEFLNEWLAFVKPSVAPKTHERYTEICRKGLSPLIGNVILSKLKTDRIDAAFTTALTAPRVDHRTKKDQREPLPPLAPRTVHHYRRVLVKALGQAVTWERLSRNPATATTPPKVERQKMLAYDVGQTATLLETLRPTRMFVPVLLAVTCGLRRGEILALRWRHLELGDNRRQMSIEESAEQTADGVRYKEPKSGRARTVALSASTVAELKAHRARQAEEQLRLGIRPDADSFVVAQVDGQPLQPRSLTHEWVRVLGKTSLPRIRFHDLRHTHATQMLSAGVHPKIASERLGHSNIGITLDLYSHVMPGMQADAAEQVDVALQAAISSERKGK | failed |
| MKGIMVQGTASDVGKSLICTALCRIFARRGYKVTPFKSQNMSNNSYITVEGLEIGRAQGIQAEAAMEEASVYMNPILLKPRNDREAEIVCFGQAVDTVSGVKYRDGFYKRGLEAIKQALATLSQSFDMVVIEGAGSPVEVNLNDRELVNMKVAELADVPVILVADIERGGVFASLYGTLELLQPNERKRVVGIIVNKFRGDPELFSSGVQWIEQHLGVPVLGVLPHLPGVRIEGEDSLSKGQVTSVLPRDQSIDIAVLDLPYLSNYTDLEPFRYEEDVAIRFVSSVDALGRPDAIILPGTKSTFHDLQILKEKGFKERLHEYVTTDGTVVAICGGFQMLGHRLIDVAGSDTGIKGATIDGLDLAPVETRFAEKKKTVRSLGQLLHPFGTAKDIYGFEIHLGETDIVDPSIPAFLRVGNHTDGVYLHEGRLIGTYFHHLFFNDDFRSGWLNTLRRKKGLRERPTVELEKCRRASYDQLADEVERVLHVDSLLEKMERWGETSLEHHHHHH | not failed |
| MKGITSLGSKWFVEFEKNNVHNVYDRIAEHFTKTRYRIWPGVELFLKQTSPLDTVLDVGCGNGKNLISYRNLFCIGIDRCVPLVKTCKQRQLETAVADILELPFQSEKFDIVLCIAVLHHLCTRERRILAIQELGRVLRPGGSCLLYVWAANENDGKDEVKNTKAREKMRFLDENKQEALIPWVVIDHEKKATQLEKNLKQPSTFTLERYYHLYRQGELEEECLQSNCFHIQHSYYEQSNWCVVLDKKS | not failed |
| MKGKILDYSIQTSTGIIRAENQQRYSFSGSAWKEQQAPMRGMHVDFEIDAQDQVIDIFIDASDLEPAIQPSPTAVISDTVSKETHADNLSTSSDPLSSASLSHTHSQYSSSTDDQHQNLLANESKYSMMDWVMKCLRNYINFTGRARRKEYWFFQLWYAILSFVMLVLGDAFHWGDNLFLIATLLVALPAIAVSAHRLHDINRSGWLVLLNLVTIVGVLIVTFFFMIKEGDQTTNSYGPASK | failed |
| MKGKVVSYLAAKKYGFIQGDDGESYFLHFSELLDKKDEGKLVKGSMVHFDPTPTPKGLAAKAISLPLEHHHHHH | not failed |
| MKGLCSSDTRQYLPGHQLWEAPVQIRRYSAVIHHATKCQWGVIPSRTINVSLHQTRRMRVAAVGIGGAGGRIVERLWQDNERRETTYLGAACAVDTDTEALDELDALPADRRYAFGLSETNGTGTNGDRTSGTAAIEDERLEVRRAIDELVTSDIDAVVLVAGLAGGTGSGATAHIADALREVYSIPVYCLSVLPAGRDDDAAANTMQALRALESTVDGQILFDNEAWLGSGQTVESASETLNETIVARLGALFAAGEATAPDAVGQSVVDASEIINTLSDAGFTTLGYASQDLQTGAGSGDGTVIDQLKNRFLGDNADDVDEIEAYNAVETTLRRAVRGKLTAQCELDSADRALAVFAGPPAWLIRDAVTDGRRWLTEELQSPLEHHHHHH | failed |
| MKGNFHSTYDQGFARVAACTTTVHIGDPASNVAGILDTCRELSSRSVAIAVFPELCLTGYAIDDLLLQDVVLDAVLDAIETVRQASRSLFPVIIVGAPLQRGNRLYNCAVVIHRGQVLGVVPKSHLPNYREFYEKRHFAVGAGTTGMIDLSGRQKSHAASTEIPFGPDQLFRATDLPDLTFHVEVCEDLWVPVAPSSQAALAGAVVEVNLSGSPITVGKSRQRHELCKVTSSRNLQAYVYAAAGPGESSTDLSWDGQTMIYENGSLLAATDRFSPEPGYCLADIDLDLLRQERLRQGSFDDNALAQPAQAPWRTTIFTLDPPHDDIGLERPVNRFPFVPNDPDQLAQDCYEAYNIQVYGLRRRLESMGSPKIVIGVSGGLDSTHALLVAAKAMDQMGRPRTDILAFTMPGFATTDHTKNNALDMCRALGIPCEVLDIRPAATQMLKGMSHPAGDGAEVYDVTFENVQAGLRYDYLFRIANQRGGIVLGTGDLSELALGWCTFGVGDQMSHYGVNTGVPKTLIQHLIRWCISSGQFNEATNVVLESVLGTEISPELVPARPGEKIQSTQAKIGPYELQDFTLYHLLRHGMRPSRIIFLSHHAWRDASVGSWPPGFRDEDRHSYDLSAIKDWTRLFLRRFVGNQFKRSTLPNGPKVVAGGSLSPRGDWRMPSDAVVRAWLDDLETVPDERF | failed |
| MKGTKKLAWLGLLLVLPVLAQATTVTYSALTVRELGNFLMNLPTGFYAIAPAAAKNMMDTVDVFILDVREPNEFAGERIQGAVNIPIRDLPKRVGELPKGKPIIVYCKVGHRGSMAMMFLRGQGYNVQSISGGLDGWKNAGLPVVK | failed |
| MKGTNTIYIIISSILLAYIMQIFVLYPFTAVAIGIPLGLLSRKYSAIGGFLIGFLSSLSLYLIYPINAVSKIAEIIGQLIGINPFLVVLLYPLIYGTISLISALLFYYIVRLNK | failed |
| MKHCLKFALLAGFALLLTACGFHLRGLGGSLKPLPFSTMYLEATGKSIEADLRTVFARDPKLSVMSEPKGAQAVVSVVSENQSKDILTINTGGRINEYQLTYTVVVRTVIGGVPVDPDMVVTVRRSLNYSDNQVLGKQQEEDLLWADARRDAAEQIVRRLAYLKVPAAPLAGPVSVKPDAVPQPLEHHHHHH | not failed |
